Test results taken from paper PMC3530536.

Molecular target: recombinant RRM2 domain (aa 190–265) of human WT TDP-43 (human) (UniProt Q13148)
Test: SEC; Superdex 75 10/300 in PBS, 0.5 mL/min; soluble RRM2 2–3 mg/mL after heat at 70°C for 10 min, nucleotide-free

“recombinant RRM2 domain (aa 190–265) of human WT TDP-43 (from UniProt Q13148 190-265) (domain or fragment)” was tested. Which stoichiometry N did it give?
The stoichiometry N was 2.
